Laboratory results taken from patent US20230322953A1 (HARBOUR BIOMED SHANGHAI, published 2023).
Positions count from the first letter of the chain named. In names and notes the source's numbering stands.

Key:
[1] = biological target: T1, human PD-L1 on cells (CHO-K1/hPDL1; MDA-MB-231) (human, UniProt Q9NZQ7 19-290); experiment: competition FACS: biotinylated PD-1 to CHO-K1/hPDL1 cells (Experiment 2)
T1 construct: whole, on cells

[2] = biological target: T2, human CTLA4 on cells (CHO-K1/hCTLA4; HEK293/hCTLA4; 293F-hCTLA4) (human, UniProt P16410 36-223); experiment: FACS, CHO-K1/hCTLA4 cells (Test 2)
T2 construct: whole, on cells

[3] = biological target: T1, human PD-L1 on cells (CHO-K1/hPDL1; …); experiment: FACS, CHO-K1/hPDL1 cells (Experiment 2)
[4] = biological target: T2, human CTLA4 on cells (CHO-K1/hCTLA4; …); experiment: competition FACS: biotinylated B7-1-Fc to CHO-K1/hCTLA4 cells (Test 2)
human BCMA [5] = biological target: T3, human BCMA (human, UniProt Q02223 1-184); experiment: FACS on NCI-H929 cells
T3 construct: whole, on cells; also called hBCMA; TNFRSF17
T3 sequence (looked up): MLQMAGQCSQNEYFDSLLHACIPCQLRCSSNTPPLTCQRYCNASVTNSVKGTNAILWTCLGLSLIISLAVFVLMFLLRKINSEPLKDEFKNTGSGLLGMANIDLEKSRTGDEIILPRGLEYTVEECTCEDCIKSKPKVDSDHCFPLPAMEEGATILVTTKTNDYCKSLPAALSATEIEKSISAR

human BCMA [6] = biological target: T4, human BCMA (human, UniProt Q02223 1-184); experiment: flow cytometry, NCI-H929 cells, Flag-tagged VH single domain, anti-tag secondary antibody
T4 construct: whole, on cells; the cell line is named under assay; also called TNFRSF17; CD269
T4 sequence (looked up): T3 sequence (looked up)

[7] = biological target: T5, biotinylated human BCMA-Fc, Avitag recombinant protein (ACRO Biosystems, #BC7-H82F0) (human, UniProt Q02223 1-54, biotinylated); experiment: BLI, dissociation rate relative to the original molecule PR001046 VH
T5 construct: extracellular domain; Bought protein; also called human BCMA protein; recombinant human BCMA-ECD-Fc; not shown: Fc of the bought fusion protein; Avitag
T5 sequence (looked up): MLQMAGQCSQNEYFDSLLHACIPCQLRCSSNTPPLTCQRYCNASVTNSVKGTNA

[8] = biological target: T5, biotinylated human BCMA-Fc, Avitag …; experiment: BLI (Octet Red96e), biotinylated BCMA-Fc on SA sensor, VH supernatant, 100 nM, single concentration

T2 sequence (P16410 36-223): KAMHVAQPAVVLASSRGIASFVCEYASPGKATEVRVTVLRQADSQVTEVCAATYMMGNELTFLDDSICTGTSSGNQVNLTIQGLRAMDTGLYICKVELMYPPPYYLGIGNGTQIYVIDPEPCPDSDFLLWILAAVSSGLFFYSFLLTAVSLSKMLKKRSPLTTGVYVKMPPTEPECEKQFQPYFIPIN
T1 sequence (Q9NZQ7 19-290): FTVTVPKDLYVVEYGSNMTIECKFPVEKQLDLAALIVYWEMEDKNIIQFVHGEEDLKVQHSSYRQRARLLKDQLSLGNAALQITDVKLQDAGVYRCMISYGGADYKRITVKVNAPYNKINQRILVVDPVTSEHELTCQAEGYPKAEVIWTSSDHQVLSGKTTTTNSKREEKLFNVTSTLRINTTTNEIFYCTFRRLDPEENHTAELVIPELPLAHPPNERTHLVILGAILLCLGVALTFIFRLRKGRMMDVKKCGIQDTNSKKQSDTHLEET

B1: PR001578 (bispecific antibody, human IgG1, kappa)
chain 1: EVQLVESGGGLIQPGGSLRLSCAVSGFTVSKNYMSWVRQAPGKGLEWVSVVYSGGSKTYADSVKGRFTISRDNSKNTLYLQMNSLRAEDTAVYYCARAVPHSPSSFDIWGQGTMVTVSSKLEPKSSDKTHTPPPPPRTDIQMTQSPSTLSASVGDRVTVTCRASQSIYIWLAWYQQKPGKAPNLLIYKASSLETGVPSRFSGSGSGTEFTLTISSLQPDDFATYYCQQYYGSSRTFGQGTKVEIKRTVAAPSVFIFPPSDEQLKSGTASVVCLLNNFYPREAKVQWKVDNALQSGNSQESVTEQDSKDSTYSLSSTLTLSKADYEKHKVYACEVTHQGLSSPVTKSFNRGEC
chain 2: not shown
notes: PD-L1×CTLA4, structure 9, Fc S239D, I332E
- IC50 [1]: 1.69 nM
- Maximum inhibition rate (%) [1]: 81.4%
- EC50 [2]: 4.65 nM
- Maximum MFI [2]: 401 MFI
- EC50 [3]: 1.94 nM
- Maximum MFI [3]: 5660 MFI
- IC50 [4]: 2.97 nM
- Maximum inhibition rate (%) [4]: 100%

B2: PR001573 (bispecific antibody, human IgG1, kappa)
light: DIQMTQSPSTLSASVGDRVTVTCRASQSIYIWLAWYQQKPGKAPNLLIYKASSLETGVPSRFSGSGSGTEFTLTISSLQPDDFATYYCQQYYGSSRTFGQGTKVEIKRTVAAPSVFIFPPSDEQLKSGTASVVCLLNNFYPREAKVQWKVDNALQSGNSQESVTEQDSKDSTYSLSSTLTLSKADYEKHKVYACEVTHQGLSSPVTKSFNRGEC
chain: not shown
notes: PD-L1×CTLA4, structure 3
- IC50 [1]: 0.5 nM
- Maximum inhibition rate (%) [1]: 82.3%
- EC50 [2]: 9.9 nM
- Maximum MFI [2]: 781 MFI
- EC50 [3]: 0.83 nM
- Maximum MFI [3]: 8310 MFI
- IC50 [4]: 6.22 nM
- Maximum inhibition rate (%) [4]: 99.2%

B3: PR000416, anti-PD-L1 91G3H5H3(D54E), hIgG1 (antibody)
heavy: not shown
light: B2 light
- IC50 [1]: 0.27 nM
- Maximum inhibition rate (%) [1]: 79.8%
- EC50 [3]: 0.5 nM
- Maximum MFI [3]: 8380 MFI

B4: PR003876 (bispecific antibody, human IgG1, lambda, L234A L235A)
light: QAVVTQEPSLTVSPGGTVTLTCRSSTGAVTTSNYANWVQQKPGQAPRGLIGGTNKRAPWTPARFSGSLLGDKAALTLLGAQPEDEAEYFCALWYSNLWVFGGGTKLTVLGQPKAAPSVTLFPPSSEELQANKATLVCLISDFYPGAVTVAWKADSSPVKAGVETTTPSKQSNNKYAASSYLSLTPEQWKSHRSYSCQVTHEGSTVEKTVAPTECS
heavy: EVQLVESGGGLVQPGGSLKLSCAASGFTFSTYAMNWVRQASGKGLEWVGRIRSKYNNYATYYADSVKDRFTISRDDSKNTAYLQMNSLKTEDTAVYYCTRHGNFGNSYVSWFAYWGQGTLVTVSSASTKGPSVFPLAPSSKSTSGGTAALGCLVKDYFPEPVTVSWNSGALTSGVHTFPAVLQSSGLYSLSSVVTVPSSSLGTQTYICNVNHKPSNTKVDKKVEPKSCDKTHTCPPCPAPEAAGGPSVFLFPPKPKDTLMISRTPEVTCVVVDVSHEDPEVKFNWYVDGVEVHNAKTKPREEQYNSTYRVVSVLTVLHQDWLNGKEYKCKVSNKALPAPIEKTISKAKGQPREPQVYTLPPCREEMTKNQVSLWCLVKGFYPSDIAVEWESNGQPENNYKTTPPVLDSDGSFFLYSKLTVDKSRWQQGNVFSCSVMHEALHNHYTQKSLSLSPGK
chain: EVQLVETGGGLIQPGGSLRLSCAASGFTVSDSYMTWVRQAPGKGLEWVSVIFSGGKTYYSDSVKGRFTISRDNAKNTLYLQMNSLRAEDTALYYCARRNYDQTIGTDVFDIWGQGTMVTVSSASEPKSSDKTHTCPPCPAPEAAGGPSVFLFPPKPKDTLMISRTPEVTCVVVDVSHEDPEVKFNWYVDGVEVHNAKTKPREEQYNSTYRVVSVLTVLHQDWLNGKEYKCKVSNKALPAPIEKTISKAKGQPREPQVCTLPPSREEMTKNQVSLSCAVKGFYPSDIAVEWESNGQPENNYKTTPPVLDSDGSFFLVSKLTVDKSRWQQGNVFSCSVMHEALHNHYTQKSLSLSPGK
notes: BCMAxCD3, Fab-Fc-VH (structure 11); CD3 Fab of PR003886, BCMA VH of PR004571; IgG1 knob/hole, LALA
- EC50 (human BCMA [5]): 2.3 nM
- Maximum MFI (human BCMA [5]): 10900

B5: PR002300 (bispecific antibody, human IgG1, lambda, L234A L235A)
light: B4 light
heavy: EVQLLESGGGLVQPGGSLRLSCAASGFTFSTYAMNWVRQAPGKGLEWVSRIRSKYNNYATYYADSVKDRFTISRDDSKSTLYLQMNSLRAEDTAVYYCVRHGNFGNSYVSWFAYWGQGTLVTVSSASTKGPSVFPLAPSSKSTSGGTAALGCLVKDYFPEPVTVSWNSGALTSGVHTFPAVLQSSGLYSLSSVVTVPSSSLGTQTYICNVNHKPSNTKVDKKVEPKSCDKTHTCPPCPAPEAAGGPSVFLFPPKPKDTLMISRTPEVTCVVVDVSHEDPEVKFNWYVDGVEVHNAKTKPREEQYNSTYRVVSVLTVLHQDWLNGKEYKCKVSNKALGAPIEKTISKAKGQPREPQVYTLPPCREEMTKNQVSLWCLVKGFYPSDIAVEWESNGQPENNYKTTPPVLDSDGSFFLYSKLTVDKSRWQQGNVFSCSVMHEALHNHYTQKSLSLSPGK
chain: EVQLLESGGGLVQPGGSLRLSCAASGFTFSSYAMIWVRQAPGKGLEWVSGISESGGSTYYADSVKGRFTISRDNSKNTLYLQMNSLRAEDTAVYFCVKDLDDILTGYYKDYWGQGTLVTVSSRTGGGGSGGGGSGGGGSKLEVQLLESGGGLVQPGGSLRLSCAASGFTFSSYAMIWVRQAPGKGLEWVSGISESGGSTYYADSVKGRFTISRDNSKNTLYLQMNSLRAEDTAVYFCVKDLDDILTGYYKDYWGQGTLVTVSSASEPKSSDKTHTCPPCPAPEAAGGPSVFLFPPKPKDTLMISRTPEVTCVVVDVSHEDPEVKFNWYVDGVEVHNAKTKPREEQYNSTYRVVSVLTVLHQDWLNGKEYKCKVSNKALGAPIEKTISKAKGQPREPQVCTLPPSREEMTKNQVSLSCAVKGFYPSDIAVEWESNGQPENNYKTTPPVLDSDGSFFLVSKLTVDKSRWQQGNVFSCSVMHEALHNHYTQKSLSLSPGK
notes: BCMAxCD3, Fab-Fc-VH(2) (structure 14); CD3 Fab of PR001848, two BCMA VH of PR000940, linker RT-GS_15-KL; IgG1 knob/hole, AAG
- Maximum MFI (human BCMA [5]): 44200

B6: PR003880 (bispecific antibody, human IgG1, lambda, L234A L235A)
light: B4 light
heavy: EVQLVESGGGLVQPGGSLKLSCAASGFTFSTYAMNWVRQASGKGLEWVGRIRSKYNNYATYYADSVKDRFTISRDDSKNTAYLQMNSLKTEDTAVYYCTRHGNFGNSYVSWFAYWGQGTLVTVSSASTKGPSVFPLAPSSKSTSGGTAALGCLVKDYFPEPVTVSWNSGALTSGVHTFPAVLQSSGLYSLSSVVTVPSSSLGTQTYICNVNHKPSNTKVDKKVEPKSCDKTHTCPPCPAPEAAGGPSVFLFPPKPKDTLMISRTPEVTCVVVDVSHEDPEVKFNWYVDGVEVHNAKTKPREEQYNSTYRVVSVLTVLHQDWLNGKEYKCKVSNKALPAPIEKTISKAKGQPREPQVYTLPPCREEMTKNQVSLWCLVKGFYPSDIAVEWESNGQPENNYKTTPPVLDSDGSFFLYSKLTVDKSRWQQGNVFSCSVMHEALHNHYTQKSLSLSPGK
chain: B4 chain with S32A, K56N, Y59V, I104R
notes: BCMAxCD3, Fab-Fc-VH (structure 11); CD3 Fab of PR003886, BCMA VH of PR004560; IgG1 knob/hole, LALA
- EC50 (human BCMA [5]): 5.6 nM
- Maximum MFI (human BCMA [5]): 8660

B7: PR002299 (bispecific antibody, human IgG1, lambda, L234A L235A)
light: B4 light
heavy: B5 heavy
chain: EVQLLESGGGLVQPGGSLRLSCAASGFTFSSYAMIWVRQAPGKGLEWVSGISESGGSTYYADSVKGRFTISRDNSKNTLYLQMNSLRAEDTAVYFCVKDLDDILTGYYKDYWGQGTLVTVSSRTGGGGSKLEVQLLESGGGLVQPGGSLRLSCAASGFTFSSYAMIWVRQAPGKGLEWVSGISESGGSTYYADSVKGRFTISRDNSKNTLYLQMNSLRAEDTAVYFCVKDLDDILTGYYKDYWGQGTLVTVSSASEPKSSDKTHTCPPCPAPEAAGGPSVFLFPPKPKDTLMISRTPEVTCVVVDVSHEDPEVKFNWYVDGVEVHNAKTKPREEQYNSTYRVVSVLTVLHQDWLNGKEYKCKVSNKALGAPIEKTISKAKGQPREPQVCTLPPSREEMTKNQVSLSCAVKGFYPSDIAVEWESNGQPENNYKTTPPVLDSDGSFFLVSKLTVDKSRWQQGNVFSCSVMHEALHNHYTQKSLSLSPGK
notes: BCMAxCD3, Fab-Fc-VH(2) (structure 14); CD3 Fab of PR001848, two BCMA VH of PR000940, linker RT-GS_5-KL; IgG1 knob/hole, AAG
- Maximum MFI (human BCMA [5]): 32800

B8: PR003879 (bispecific antibody, human IgG1, lambda, L234A L235A)
light: B4 light
heavy: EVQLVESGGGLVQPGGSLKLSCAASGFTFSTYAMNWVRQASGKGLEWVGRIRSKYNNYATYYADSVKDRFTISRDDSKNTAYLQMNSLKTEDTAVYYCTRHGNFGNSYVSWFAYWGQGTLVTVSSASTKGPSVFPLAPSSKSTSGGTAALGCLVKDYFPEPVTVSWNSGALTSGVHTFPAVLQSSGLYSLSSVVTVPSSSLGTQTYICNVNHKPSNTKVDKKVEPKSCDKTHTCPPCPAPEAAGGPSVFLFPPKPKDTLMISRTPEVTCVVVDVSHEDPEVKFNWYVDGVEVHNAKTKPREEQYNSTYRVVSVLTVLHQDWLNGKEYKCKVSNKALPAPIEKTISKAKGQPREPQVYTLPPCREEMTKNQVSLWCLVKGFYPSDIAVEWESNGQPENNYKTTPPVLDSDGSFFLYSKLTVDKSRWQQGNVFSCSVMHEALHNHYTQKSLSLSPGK
chain: B4 chain with S32A, K56R, I104R
notes: BCMAxCD3, Fab-Fc-VH (structure 11); CD3 Fab of PR003886, BCMA VH of PR004574; IgG1 knob/hole, LALA
- EC50 (human BCMA [5]): 2.1 nM
- Maximum MFI (human BCMA [5]): 10800

B9: PR002332 (bispecific antibody, human IgG1, lambda, L234A L235A)
light: B4 light
heavy: B5 heavy
chain: EVQLVETGGGLIQPGGSLRLSCAASGFTVSDNYMTWVRQAPGKGLEWVSVIFSGGNTYYADSVKGRFTISRDNAKNTLYLQMNSLRAEDTALYYCARRNYDDTRGTDVFDIWGQGTMVTVSSRTGGGGSGGGGSGGGGSKLEVQLVETGGGLIQPGGSLRLSCAASGFTVSSNYMTWVRQAPGKGLEWVSVIFSGGSTYYADSVKGRFTISRDNSKNTLYLQMNSLRAEDTAVYYCARRIAVAGHDVFDIWGQGTMVTVSSASEPKSSDKTHTCPPCPAPEAAGGPSVFLFPPKPKDTLMISRTPEVTCVVVDVSHEDPEVKFNWYVDGVEVHNAKTKPREEQYNSTYRVVSVLTVLHQDWLNGKEYKCKVSNKALGAPIEKTISKAKGQPREPQVCTLPPSREEMTKNQVSLSCAVKGFYPSDIAVEWESNGQPENNYKTTPPVLDSDGSFFLVSKLTVDKSRWQQGNVFSCSVMHEALHNHYTQKSLSLSPGK
notes: BCMAxCD3, Fab-Fc-VH'-VH'' (structure 15); IgG1 knob/hole, AAG
- EC50 (human BCMA [5]): 9 nM
- Maximum MFI (human BCMA [5]): 84500

B10: PR003882 (bispecific antibody, human IgG1, lambda, L234A L235A)
light: B4 light
heavy: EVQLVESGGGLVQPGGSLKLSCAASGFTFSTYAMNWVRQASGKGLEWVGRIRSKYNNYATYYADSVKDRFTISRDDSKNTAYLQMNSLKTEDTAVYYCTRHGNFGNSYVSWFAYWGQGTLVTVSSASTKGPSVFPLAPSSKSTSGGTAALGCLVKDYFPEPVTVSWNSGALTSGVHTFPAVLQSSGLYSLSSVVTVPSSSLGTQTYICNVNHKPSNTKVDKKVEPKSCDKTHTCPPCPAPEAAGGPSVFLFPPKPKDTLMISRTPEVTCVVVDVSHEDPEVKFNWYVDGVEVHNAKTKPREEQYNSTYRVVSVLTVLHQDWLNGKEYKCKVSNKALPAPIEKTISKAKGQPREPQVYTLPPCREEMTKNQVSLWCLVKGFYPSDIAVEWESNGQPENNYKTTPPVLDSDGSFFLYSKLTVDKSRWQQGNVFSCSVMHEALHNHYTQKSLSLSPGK
chain: B4 chain with I104L
notes: BCMAxCD3, Fab-Fc-VH (structure 11); CD3 Fab of PR003886, BCMA VH of PR004562; IgG1 knob/hole, LALA
- EC50 (human BCMA [5]): 1.8 nM
- Maximum MFI (human BCMA [5]): 11100

B11: PR001046 VH single-domain molecule (original molecule) (VHH)
VHH: EVQLVETGGGLIQPGGSLRLSCAASGFTVSDNYMTWVRQAPGKGLEWVSVIFSGGNTYYADSVKGRFTISRDNAKNTLYLQMNSLRAEDTALYYCARRNYDDTRGTDVFDIWGQGTMVTVSS
notes: not the HCAb form; not shown: Flag and His tags
- Maximum MFI (human BCMA [6]): 764
- Kdis fold [7]: 1
- Response [8]: 0.261
- koff [8]: 0.000696 s⁻¹

B12: PR000274 (antibody, human IgG1, kappa, V domains shown)
VH: QVQLVQSGAEVKKPGSSVKVSCKASGGTFSNYWMHWVRQAPGQGLEWMGATYRGHSDTYYNQKFKGRVTITADKSTSTAYMELSSLRSEDTAVYYCARGAIYDGYDVLDNWGQGTLVTVSS
VL: DIQMTQSPSSLSASVGDRVTITCSASQDISNYLNWYQQKPGKAPKLLIYYTSNLHSGVPSRFSGSGSGTDFTLTISSLQPEDFATYYCQQYRKLPWTFGQGTKLEIKR
notes: also called Positive control 1; CA8-J6M0
- EC50 (human BCMA [5]): 28.9 nM
